From patent publication US20060239990A1, “Protein Arginine N-Methyltransferase 2 (PRMT-2)” (priority 2003, published 2006)

Experiments:
IκB-α = assay: Immunoblot of nuclear IκB-α in transfected 293 cells; assay type: cell-based, human; conditions: transfected cells stimulated with TNF-α, vs PRMT2-N
Procedure: Small-scale preparation of nuclear extracts. A modified Dignam procedure (Dignam et al., Nucleic Acids Res. 11: 1475-89 (1983)) was used to prepare nuclear extracts from 293 cells. Cells were harvested, washed with PBS, resuspended in 1 ml Dignam buffer A, and transferred to pre-chilled microfuge tubes, which were spun at 1000 rpm for 1 minute. The supernatant was aspirated thoroughly, and pellets were carefully resuspended to avoid frothing, in 60 μl modified Dignam buffer A containing 0.1% Nonidet P-40 (NP40). Samples were incubated at 4° C. for approximately 10 minutes, and microcentrifuged for 10 minutes at 4° C. The cytoplasmic extract supernatant was diluted in 3 volumes of modified Dignam buffer D and frozen quickly. The pellets were resuspended in 40 μl Dignam buffer C. Samples were incubated for 15 minutes at 4° C. on a tumbler, and centrifuged again for 5 minutes at 4° C. The supernatant was diluted with 6 volumes of modified Dignam buffer D. Samples were frozen quickly in aliquots and stored at −70° C.
Western Blotting. Proteins resolved by SDS-polyacrylamide gel electrophoresis (PAGE) were transferred to polyvinylidene difluoride (PVDF) membranes. […]

NF-κB = NF-κB luciferase reporter assay in 293T cells; assay type: cell-based, human
Procedure: Cell culture, transfection, and reporter gene assays. The E1A-transformed, human kidney cell line, 293, and NIH-3T3 cells were maintained in Dulbecco's Modified Eagle Medium (DMEM) supplemented with 10% fetal calf serum and penicillin-streptomycin at 37° C. in 5% carbon dioxide in tissue culture grade Petri dishes. PRMT-2−/− mouse embryo fibroblasts (MEFs) and wild type MEFs were prepared from day 13.5 embryos and maintained in DMEM supplemented with 10% fetal calf serum. MEFs at passage 4 were used in this experiment. Lipofectamine Plus™ reagent (Boehringer Mannheim) was used to transfect both 293 and NIH-3T3 cells according to directions from the manufacturer. […] TNF-α stimulation of cells was done using recombinant TNF-α (200 U/ml) for 12 hours. […] CAT assays were performed essentially as described in Leung, K. & Nabel, G. J. Nature 333, 776-778 (1988). To analyze the κB-reporter activity in MEFs, cells were transfected with the reporter (2×kB-Luc) and PRL-TK vector (Promega) using FuGENE6 transfection reagent (Roche). Luciferase activity was analyzed by Dual-Luciferase Reporter Assay System (Promega).
To map the domains responsible for inhibition of HIV transcription, truncation and point mutations were made in PRMT2 (FIG. 1D) and co-transfected with an NF-κB reporter in 293T cells. PRMT2-A represents an alternatively spliced form of PRMT2 found in the expressed sequence tag (EST) database. This isoform contains the first 218 amino acids of PRMT2 and differs from full length PRMT2 by the absence of the less conserved COOH-terminal domain. PRMT2-N was generated by introducing a stop codon after amino acid 95 before the putative Ado-Met domain of PRMT2. To analyze the role of the Ado-Met domain further, another mutant, PRMT2-4A, was prepared in which 141ILDV144 (SEQ ID NO:5) in this region were altered to four consecutive alanines to compare the effects of point mutations in this highly conserved region.
The mechanism and site of action of PRMT2 in the NF-κB signaling pathway was further defined by co-transfection of PRMT2 and its mutants with different regulators in this pathway with an NF-κB reporter in 293T cells (FIG. 2D).

p50/p65 complex = assay: NF-κB DNA binding assay (EMSA); assay type: biochemical, human; conditions: 293 cells cotransfected with p50 and p65 expression vectors
Procedure: DNA binding assay. Electrophoretic mobility shift assays (EMSAs) were conducted on 10 μg of nuclear extract protein from 293 cells transiently transfected with pRSV p50/p65 expression constructs and pVR1012 PRMT-2-A/PRMT-2-N expression constructs. A modified Dignam procedure (Dignam et al. Nucleic Acids Res. 11, 1475-1489 (1983)) was used to prepare nuclear extracts from 293 cells. Perkins, N. D. et al. Science 275, 523-527 (1997). NF-KB DNA binding was assayed using a double-stranded 32P-labeled κB probe (Geneka Biotechnology). DNA binding assays were performed as described previously. Perkins et al. Science 275, 523-527 (1997). Supershifting was done using NF-κB p65 (C-20) and NF-κB p50 (H-119) (Santa Cruz). GST-PRMT-2-A fusion proteins were expressed in BL21 (DE3) cells and extracts were prepared as described previously. Smith, D. B. & Johnson, K. S. Gene 67, 31-40 (1988).

B1: PRMT2: human PRMT-2 polypeptide, SEQ ID NO:2, expressed from pVR1012 vector with HA-tag (protein, listed as Homo sapiens)
chain: MATSGDCPRSESQGEEPAECSEAGLLQEGVQPEEFVAIADYAATDETQLSFLRGEKILILRQTTADWWWGERAGCCGYIPANHVGKHVDEYDPEDTWQDEEYFGSYGTLKLHLEMLADQPRTTKYHSVILQNKESLTDKVILDVGCGTGIISLFCAHYARPRAVYAVEASEMAQHTGQLVLQNGFADIITVYQQKVEDVVLPEKVDVLVSEWMGTCLLFEFMIESILYARDAWLKEDGVIWPTMAALHLVPCSADKDYRSKVLFWDNAYEFNLSALKSLAVKEFFSKPKYNHILKPEDCLSEPCTILQLDMRTVQISDLETLRGELRFDIRKAGTLHGFTAWFSVHFQSLQEGQPPQVLSTGPFHPTTHWKQTLFMMDDPVPVHTGDVVTGSVVLQRNPVWRRHMSVALSWAVTSRQDPTSQKVGEKVFPIWR
modifications: HA tag
**Q.** For B1, which “increase in nuclear IκB-α protein levels over the mutant control” value (IκB-α) is on record?
**A.** ~8 fold

**Q.** And the NF-κB activity (NF-κB; 1 μg expression construct, 100 ng 5 κB luciferase reporter)?
**A.** inhibited NF-κB activity

**Q.** What about the “IKK2- and p65-induced NF-κB activity” value (NF-κB; κB luciferase reporter, 48 hrs) of the same molecule?
**A.** inhibited both IKK2- and p65-induced NF-κB activity

**Q.** What about the “NF-κB DNA binding in nuclear extracts of transfected cells” value (p50/p65 complex) of the same molecule?
**A.** inhibited DNA binding of the p50/p65 complex in a dose-dependent manner
